The stoichiometry N is a count of units in the complex or per binding partner.

Results on two substances are retold here after publication PMC6300606.

For test [1], the target named is TssKSN (shoulder and neck domains of EAEC TssK, residues 1–315) (enteroaggregative Escherichia coli (EAEC)). Kind of test: cryo-EM structure; TssKSN–TssF–TssG complex co-expressed in E. coli and purified (Ni-NTA, Superose 6); 0.12 mg/ml in 20 mM Tris-HCl pH 7.8, 150 mM NaCl; single-particle cryoEM, 3.7 Å overall.
The target in test [2] is TssG (EAEC, residues 64–366) (enteroaggregative Escherichia coli (EAEC)). The test is described as above.

Turning to “TssKSN (shoulder and neck domains of EAEC TssK, residues 1–315) (domain or fragment)”, in test [1], the stoichiometry N came out at 3.

For “TssF (EAEC, full length) (natural protein)”, the stoichiometry N (TssF per TssG) in test [2] worked out at 2.
